Each block holds one binder with its values, some of them ahead of it.
Assays:
[1] = target: T1, hCD22 fragment Bin 1, IVR1 (aa1-135), displayed on yeast cells (human, UniProt P20273 20-154); assay: yeast display cell ELISA, native cells
T1 construct: range 1-135; Range is counted on the mature ECD, not on the UniProt entry; on P20273 it would be 20-154 (my arithmetic); also called CD22 Sub-Domain 1; not shown: Aga2-HA display fusion partner of vector pPNL6; MYC tag
T1 sequence (looked up): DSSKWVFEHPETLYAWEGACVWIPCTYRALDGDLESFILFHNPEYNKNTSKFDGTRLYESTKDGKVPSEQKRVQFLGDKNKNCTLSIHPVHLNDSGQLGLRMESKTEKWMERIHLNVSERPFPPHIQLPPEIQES
Experimental: (§1) The YSD vector (pPNL6) was from The Pacific Northwest National Laboratory, USA. […] The HRP activity was assayed with substrate TMB (tetramethyl benzidine) according to the manufacture’s conditions and read at OD₄₅₀.
(§2) Table 7 depicts the assessment of the nature of the epitopes of CD22 sdAbs to determine if the epitopes for the sdAbs are continuous (linear) or non-continuous (conformational). […] The binding of each sdAb to native and denatured CD22 fragments was measured as OD₄₅₀, and the ratio of the binding to denatured CD22 to non-denatured CD22 was calculated, with the ratio ≥ 0.5 indicative linear (L), and the ratio < 0.5 indicative of conformational (C) epitopes.

[2] = target: T1, hCD22 fragment Bin 1, IVR1 (aa1-135), …; assay: yeast display cell ELISA, OD on denatured over non-denatured CD22 fragment
Experimental: as §1, §2

[3] = target: T1, hCD22 fragment Bin 1, IVR1 (aa1-135), …; assay: yeast display cell ELISA, heat denatured cells (80 C, 30 min)
Experimental: as §1, §2

[4] = target: T1, hCD22 fragment Bin 1, IVR1 (aa1-135), …; assay: yeast display cell ELISA, biotinylated sdAb 250 nM
Experimental: as §1
The wells that gave rise to OD₄₅₀ above 0.25 were highlighted, indicating significant antibody-antigen interactions. All the sdAbs tested except hCd22_1ug-14 were assigned to specific Bin(s).

[5] = target: T2, full-length hCD22-ECD (668aa) displayed on yeast cells (human, UniProt P20273 20-687); assay: yeast display cell ELISA, native cells
T2 construct: extracellular domain; Yeast surface display fusion Aga2-HA-(insert)-MYC; also called Bin 8; CD22-ECD Full lenght; not shown: Aga2-HA display fusion partner of vector pPNL6; MYC tag
T2 sequence (looked up): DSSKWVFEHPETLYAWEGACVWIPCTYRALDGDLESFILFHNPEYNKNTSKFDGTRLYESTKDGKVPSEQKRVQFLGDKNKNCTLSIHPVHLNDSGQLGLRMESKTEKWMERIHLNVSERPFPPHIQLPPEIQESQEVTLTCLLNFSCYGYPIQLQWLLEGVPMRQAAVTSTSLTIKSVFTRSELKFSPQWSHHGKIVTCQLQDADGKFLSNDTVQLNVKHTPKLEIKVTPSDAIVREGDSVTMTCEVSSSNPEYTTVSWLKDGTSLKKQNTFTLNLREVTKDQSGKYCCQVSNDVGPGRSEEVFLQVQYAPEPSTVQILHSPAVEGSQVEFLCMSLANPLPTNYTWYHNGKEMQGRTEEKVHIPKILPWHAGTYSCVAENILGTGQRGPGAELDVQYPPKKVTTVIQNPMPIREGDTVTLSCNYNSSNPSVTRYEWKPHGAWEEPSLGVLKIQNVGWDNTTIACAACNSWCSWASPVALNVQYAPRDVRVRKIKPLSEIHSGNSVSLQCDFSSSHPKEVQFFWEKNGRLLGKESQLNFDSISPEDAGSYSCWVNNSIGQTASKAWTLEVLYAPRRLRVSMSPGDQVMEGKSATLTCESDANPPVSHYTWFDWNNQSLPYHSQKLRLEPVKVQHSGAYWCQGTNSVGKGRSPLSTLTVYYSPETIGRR
Experimental: as §1, §2

[6] = target: T2, full-length hCD22-ECD (668aa) displayed …; assay: yeast display cell ELISA, OD on denatured over non-denatured CD22 ECD
Experimental: as §1, §2

[7] = target: T2, full-length hCD22-ECD (668aa) displayed …; assay: yeast display cell ELISA, heat denatured cells (80 C, 30 min)
Experimental: as §1, §2

[8] = target: T3, hCD22 fragment Bin 4, IVR4 (aa303-405), displayed on yeast cells (human, UniProt P20273 322-424); assay: yeast display cell ELISA, native cells
T3 construct: Range is counted on the mature ECD, not on the UniProt entry; on P20273 it would be 322-424 (my arithmetic); also called CD22 Sub-Domain 4; not shown: Aga2-HA display fusion partner of vector pPNL6; MYC tag
T3 sequence (looked up): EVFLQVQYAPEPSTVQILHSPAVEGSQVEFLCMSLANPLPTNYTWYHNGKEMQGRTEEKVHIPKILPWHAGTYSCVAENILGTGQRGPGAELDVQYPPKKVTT
Experimental: as §1, §2

[9] = target: T3, hCD22 fragment Bin 4, IVR4 (aa303-405), …; assay: yeast display cell ELISA, OD on denatured over non-denatured CD22 fragment
Experimental: as §1, §2

[10] = target: T3, hCD22 fragment Bin 4, IVR4 (aa303-405), …; assay: yeast display cell ELISA, heat denatured cells (80 C, 30 min)
Experimental: as §1, §2

Non denatured CD22 OD [1]: 2.32 OD450
CD22 Ratio (D/ND) [2]: 0.762
Heat Inactivated CD22 OD [3]: 1.77 OD450
OD450 [4]: 2.03 OD450
B1: hCD221ug-80 (VHH)
VHH: QVQLVESGGGLVQPGGSLRLSCTFSGFTLDYYVMVWFRQAPGKEREAVSCITSDGVTYYADSVKGRFTISRDNAKNTVYLQMNRVKPEDTAVYYCAVDKPFYDGGIQYTCPVDFDSWGQGAQVTVSS
modifications: single biotin at the VHH C-terminal (biotinylation signal sequence)
notes: llama VHH, expressed in E. coli TG1, IMAC purified, monomeric SEC fraction; also called VHH # 1; 2-hCD22 1ug-80

Non denatured CD22 OD [5]: 0.789 OD450
CD22 Ratio (D/ND) [6]: 0
Heat Inactivated CD22 OD [7]: 0 OD450
B2: hCD22pas-32 (VHH)
VHH: QVQLVESGGGLVQAGGSLRLSCAVSGRIFRSYVLGWFRQAPGKERELVARIGWSDTYYADSVKGRFTISRDNAKNTVDLQMNSLKPEDTAVYYCAANSPPYGPQRDEFGYWGQGTQVTVSS
modifications: single biotin at the VHH C-terminal (biotinylation signal sequence)
notes: llama VHH, expressed in E. coli TG1, IMAC purified, monomeric SEC fraction; also called VHH # 15; 6-hCD22 pas-32

Non denatured CD22 OD [8]: 1.23 OD450
CD22 Ratio (D/ND) [9]: 0.557
Heat Inactivated CD22 OD [10]: 0.686 OD450
B3: hCD221ug-13 (VHH)
VHH: QVQLVESGGGLVQAGDSLRLSCAGSGGSFSSVTMAWFRQAPGKDREFVAAITWSSPSTYYADSVKGRFTISRDNAKNTVYLQMNSLKPEDTAVYYCAGGRTGRGTSADTDEYNYWGQGTQVTVSS
modifications: single biotin at the VHH C-terminal (biotinylation signal sequence)
notes: llama VHH, expressed in E. coli TG1, IMAC purified, monomeric SEC fraction; also called VHH # 21; 1-hCD22 1ug-13

— patent publication US20230265185A1 (NATIONAL RESEARCH COUNCIL OF CANADA, published 2023)
